The results in this text go back to US20200407442A1 (WUXI BIOLOGICS IRELAND, published 2020).

Test [1] concerns the target T1, human LAG-3-ECD.D12.mFc mutant H65A (human, UniProt P18627 37-252).
T1 construct: Alanine scanning mutant; construct limits as for m26
T1 chain: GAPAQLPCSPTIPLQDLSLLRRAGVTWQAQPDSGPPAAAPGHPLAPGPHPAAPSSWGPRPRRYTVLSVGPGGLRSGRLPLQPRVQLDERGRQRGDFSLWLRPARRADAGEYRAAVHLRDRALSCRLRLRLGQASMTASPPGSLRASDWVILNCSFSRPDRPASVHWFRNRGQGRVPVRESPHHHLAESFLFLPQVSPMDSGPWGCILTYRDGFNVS
Kind of test: ELISA, antibody coated, LAG-3 D12.mFc mutant in supernatant, normalised to control mutants. As to the method: (§1) For ELISA binding assay, the antibody 1.53.3-uAb-IgG4k or 3.40.19-uAb-hIgG4L (2 μg/mL) was coated in plates. After interacting with the supernatant that contains quantified LAG-3 mutants or human LAG-3-ECD.D12.mFc protein, HRP conjugated anti-mFc antibody (1:5000; Bethyl, USA) was added as a detection antibody. Absorbance was normalized according to the average absorbance of control mutants. After setting an additional cutoff to the binding fold change (<0.75), the final determined epitope residues were identified.

For test [2], the target named is T2, human LAG-3-ECD.D12.mFc mutant L153A (human, UniProt P18627 37-252).
T2 construct: Alanine scanning mutant; construct limits as for m26
T2 chain: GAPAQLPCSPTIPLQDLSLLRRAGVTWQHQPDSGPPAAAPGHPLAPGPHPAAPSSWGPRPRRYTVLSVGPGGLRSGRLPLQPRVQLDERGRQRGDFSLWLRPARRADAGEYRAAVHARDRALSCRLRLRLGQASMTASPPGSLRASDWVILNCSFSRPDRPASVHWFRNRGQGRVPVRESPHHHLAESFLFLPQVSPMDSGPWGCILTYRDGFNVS
The description is as above. As to the method:
as §1

Test [3] has as its target T3, human LAG-3-ECD.D12.mFc mutant G145A (human, UniProt P18627 37-252).
T3 construct: Alanine scanning mutant; construct limits as for m26
T3 chain: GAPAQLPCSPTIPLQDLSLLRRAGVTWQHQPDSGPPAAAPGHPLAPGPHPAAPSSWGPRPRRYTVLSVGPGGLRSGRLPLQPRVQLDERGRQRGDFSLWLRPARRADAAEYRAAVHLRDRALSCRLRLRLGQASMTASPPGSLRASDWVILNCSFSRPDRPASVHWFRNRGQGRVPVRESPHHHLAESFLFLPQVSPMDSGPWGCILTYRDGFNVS
The description is as above. As to the method: as §1

Test [4] deals with T4, human LAG-3-ECD.D12.mFc mutant V101A (human, UniProt P18627 37-252).
T4 construct: Alanine scanning mutant; construct limits as for m26
T4 chain: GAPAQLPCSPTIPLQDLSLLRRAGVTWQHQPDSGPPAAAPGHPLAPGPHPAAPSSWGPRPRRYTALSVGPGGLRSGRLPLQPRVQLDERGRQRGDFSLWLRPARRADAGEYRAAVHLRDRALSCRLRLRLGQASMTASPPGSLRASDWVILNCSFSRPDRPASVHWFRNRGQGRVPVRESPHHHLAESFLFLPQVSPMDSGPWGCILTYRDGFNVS
The description is as above. The procedure:
as §1

Test [5] deals with T5, human LAG-3-ECD.D12.mFc mutant W63A (human, UniProt P18627 37-252).
T5 construct: Alanine scanning mutant; construct limits as for m26
T5 chain: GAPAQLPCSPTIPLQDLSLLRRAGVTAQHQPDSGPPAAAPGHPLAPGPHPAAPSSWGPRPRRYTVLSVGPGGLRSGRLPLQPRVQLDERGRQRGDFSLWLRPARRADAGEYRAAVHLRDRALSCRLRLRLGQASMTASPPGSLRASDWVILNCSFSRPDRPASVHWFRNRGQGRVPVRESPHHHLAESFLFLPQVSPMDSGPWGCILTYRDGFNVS
The test is described as above. As to the method:
as §1

For test [6], the target named is T6, human LAG-3-ECD.D12.mFc mutant E146A (human, UniProt P18627 37-252).
T6 construct: Alanine scanning mutant; construct limits as for m26
T6 chain: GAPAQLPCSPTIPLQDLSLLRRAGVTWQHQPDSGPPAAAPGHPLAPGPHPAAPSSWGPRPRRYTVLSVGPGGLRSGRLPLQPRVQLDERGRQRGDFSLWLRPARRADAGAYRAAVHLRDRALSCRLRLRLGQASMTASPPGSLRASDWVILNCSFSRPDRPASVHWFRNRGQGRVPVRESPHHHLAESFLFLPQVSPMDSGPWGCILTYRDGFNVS
Described as above. As to the method: as §1

The target in the next test is T7, mFc-tagged LAG-3 protein (human, UniProt P18627 30-450).
T7 construct: also called human LAG-3 ECD with mouse Fc tag
T7 sequence: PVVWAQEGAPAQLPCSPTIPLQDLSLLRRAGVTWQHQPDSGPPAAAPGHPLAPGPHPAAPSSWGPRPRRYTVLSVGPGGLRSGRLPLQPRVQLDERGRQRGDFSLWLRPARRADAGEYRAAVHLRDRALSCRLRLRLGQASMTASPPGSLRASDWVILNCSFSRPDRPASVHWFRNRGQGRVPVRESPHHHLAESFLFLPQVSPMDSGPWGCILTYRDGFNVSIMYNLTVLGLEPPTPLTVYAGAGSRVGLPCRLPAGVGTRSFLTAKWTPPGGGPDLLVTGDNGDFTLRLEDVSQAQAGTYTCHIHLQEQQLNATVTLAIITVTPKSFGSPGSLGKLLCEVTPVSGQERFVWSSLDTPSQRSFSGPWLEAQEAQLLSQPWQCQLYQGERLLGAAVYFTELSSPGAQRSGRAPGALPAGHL
As to the kind of experiment: ELISA competition: blocks mFc-tagged LAG-3 binding to coated LSECtin. As to the method: 96-well plates were coated with human LSECtin or Galectin-3 at 0.5 μg/mL overnight at 4° C., respectively. Antibodies were serially diluted in 1% BSA-PBS and mixed with mFc-tagged LAG-3 protein. After blocking and washing, the mixture was transferred to the plates and incubated at room temperature for 1 h. The plates were then washed and subsequently incubated with corresponding secondary antibody for 60 min. After washing, TMB substrate was added and the color reaction was stopped by 2M HCl. The absorbance at 450 nm was read using a microplate reader.

B1: 1.53.3-uAb-IgG4k (antibody, V domains shown)
VH: QVQLQQWGAGLLKPSETLSLTCGVYGGSFSGYYWSWIRQPPGMGLEWIGEINHRGNTNYNPSLKSRVTISEDTSKNQFSLRLSSVTAADTAVYFCTRGEDYSDYDYYGDFWGQGTLVTVSS
VL: EIVLTQSPATLSLSQGERATLSCRASQSISSYLAWYQQKPGQAPRLLIYAASNRATGIPARFSGSGSGTDFTLTISSLEPEDFAIYYCQQRSNWPLTFGGGTKVEIK
notes: Fully human antibody from OMT rats; IgG4 kappa by its name
As to B1, the “Fold Change” value in test [1] was found to be 0.627; in test [2] it was 0.749; in test [3] it was 0.692; in test [4], 0.504; in test [5], 0.585; in test [6], 0.701. Further, a half-maximal response with mFc-tagged LAG-3 protein (EC50) required 0.71 nM.

B2: 3.40.19-uAb-IgG4L (antibody, V domains shown)
VH: QLQLQESGPGLVKPSETLSLTCTVSGDSISSTSYYWGWIRQPPGKGLEWIGSFYYSGSTYYNPSLKSRVTISVDTSKNQFSLKLNSVTAADTAVYYCARMQLWSYDVDVWGQGTTVTVSS
VL: QSALTQPASVSGSPGQSITISCTGTSSDVGGYDYVAWYQQHPGKVPKLMIYDVSERPSGVSNRFSGSKSGNTASLTISGLQAEDEADYYCSSYTSTTTLVVFGGGTKLSVL
notes: Fully human antibody from OMT rats; IgG4 lambda by its name; also called 3.40.19-uAb-hIgG4L
As to B2, the “Fold Change” value amounted to 0.489 in test [1]; 0.632 in test [2]; 0.466 in test [3]; 0.275 in test [4]; 0.171 in test [5]; 0.582 in test [6]. The molecule further gave an EC50 with mFc-tagged LAG-3 protein of 0.51 nM.
